Reference: patent US20240383994A1 (CHIA TAI TIANQING PHARMACEUTICAL GROUP, published 2024)

T1: CynoCD40-His protein (Acro, Cat. No.: CD0-C52H6) (cynomolgus monkey, UniProt P25942 21-193 (human entry))
T1 construct: Bought protein; also called cynomolgus monkey CD40 antigen; not shown: His tag
T1 chain: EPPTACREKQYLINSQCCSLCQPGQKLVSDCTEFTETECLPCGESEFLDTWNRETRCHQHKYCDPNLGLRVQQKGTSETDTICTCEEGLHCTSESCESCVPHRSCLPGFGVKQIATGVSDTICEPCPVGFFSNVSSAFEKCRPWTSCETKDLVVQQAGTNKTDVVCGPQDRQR


Assays:
[1] = molecular target: T2, hCD40-His protein (Acro, Cat. No.: CD0-H5228) (human, UniProt P25942 21-193); experiment: BLI (Fortebio Octet RED96e), antibody captured on AHC sensor, antigen 1.56-100 nM, 1:1 model
T2 construct: Bought protein; also called human CD40 antigen; not shown: His tag
Protocol: (§1) The affinity of humanized anti-CD40 antibodies to an hCD40-His protein (Acro, Cat. No.: CD0-H5228) and a CynoCD40-His protein (Acro, Cat. No.: CD0-C52H6) was detected by a ForteBio molecular interaction system. Firstly, an AHC biosensor (Fortebio, Cat. No.: 18-5060) was activated, and then immersed in an anti-CD40 antibody solution at a final concentration of 5 μg/mL to capture the antibodies. Serially 2-fold diluted hCD40-His protein and CynoCD40-His protein in a final concentration range of 1.56 nM-100 nM were then […] the AHC biosensor. The response signals were detected in real time on a Fortebio molecular interaction system (Fortebio Octet RED96e) to give association and dissociation curves. After the completion of dissociation in each cycle, the AHC biosensor was regenerated for the next capture; the procedure was repeated until the affinity of the different antibodies for CD40 was determined. The resulting data were analyzed by Fortebio Data Analysis 11.0 software using a 1:1 (Langmuir) binding model to determine the Kₐ (Kₒₙ) and Kd (Kdis) values, and the dissociation constant KD was calculated by KD=Kd/Kₐ. See www.fortebio.com for more detailed detection procedures and related information.

[2] = molecular target: T3, human CD40 (hCD40), full length, on cells (human, UniProt P25942 21-277); experiment: cell-based or functional assay
[3] = molecular target: T3, human CD40 (hCD40), full length, on …; experiment: cell-based or functional assay; remark: listed apart in the source
[4] = molecular target: T3, human CD40 (hCD40), full length, on …; experiment: flow cytometry (MFI) on 293T-hCD40-NFκB cells, PE anti-human IgG detection
[5] = molecular target: T4, hCD40-mFc (human); experiment: flow cytometry, blocking of hCD40-mFc (2 µg/mL) binding to CHO-K1-hCD40L cells
T4 construct: Prepared in-house in CHO cells; also called human CD40 recombinant protein containing a mouse antibody heavy chain Fc; Human CD40-mFc
Protocol: A CHO-K1-hCD40L cell suspension and a CHO-K1-CynoCD40L cell suspension at a cell concentration of 3×10⁵ cells/mL were separately added into a 96-well U-bottom plate at 100 μL/well. An hCD40-mFc protein at a final concentration of 2 μg/mL (prepared in-house, SEQ ID NO: 64) or a cynoCD40-mFc protein at a final concentration of 2 μg/mL (prepared in-house, SEQ ID NO: 65) was added correspondingly, before serially 2-fold diluted anti-CD40 antibodies in a final concentration range of 312.5 ng/ml-40000 ng/ml were added. The mixture was mixed well, and then incubated at 4° C. for 1 h. The cells were washed with PBS containing 2% of FBS, and then a PE-conjugated goat anti-mouse IgG (H+L) antibody (Abcam, Cat. No.: ab97041) diluted at a volume ratio of 1:500 was added, and the mixture was incubated at 4° C. for 0.5 h. The cells were washed with PBS containing 2% of […], and then resuspended in PBS containing 2% of FBS. The fluorescence signals were detected on a flow cytometer (Sartorius IQue3). The activity of anti-CD40 antibodies to block the binding of CHO-K1-hCD40L cells to an hCD40-mFc protein and CHO-K1-cynoCD40L cells to a cynoCD40-mFc protein was analyzed by the mean fluorescence intensity (MFI) of staining, and the IC₅₀ value was calculated by GraphPad Prism software.

[6] = molecular target: T3, human CD40 (hCD40), full length, on …; experiment: cell-based or functional assay; remark: listed apart in the source
[7] = molecular target: T1, CynoCD40-His protein (Acro, Cat. No.: …); experiment: BLI (Fortebio Octet RED96e), antibody captured on AHC sensor, antigen 1.56-100 nM, 1:1 model
Protocol: as §1

Row | Binder | Kd [1] | koff [1] | kon [1] | IC50, inhibition of Ramos cell apoptosis induced by CD40L and IL-4 [2] | Inhibition, % of Ramos cell apoptosis at 0.0128 ng/mL [2] | Inhibition, % of Ramos cell apoptosis at 0.064 ng/mL [2] | Inhibition, % of Ramos cell apoptosis at 0.32 ng/mL [2] | Inhibition, % of Ramos cell apoptosis at 1.6 ng/mL [2] | Inhibition, % of Ramos cell apoptosis at 8 ng/mL [2] | Inhibition, % of Ramos cell apoptosis at 40 ng/mL [2] | Inhibition, % of Ramos cell apoptosis at 200 ng/mL [2] | Inhibition, % of Ramos cell apoptosis at 1000 ng/mL [2] | IC50 (read off the curve); NF-κB luciferase reporter (RLU), 293T-hCD40-NFκB cells co-cultured 1:1 with CHO-K1-hCD40L cells [6] | Kd [7] | koff [7] | kon [7] | further results
1 | Chi-B01 (antibody, human IgG4 S228P, kappa, V domains shown, also called chimeric B01) VH: QIQLVQSGPELKKPGETVKISCKASGYTFTNYGMNWVKQAPGKGLKWMGWINPYTGEPTYADDFKGRFAFSVETSASTAYLQINNLKNEDTATYFCARKPPFDYWGQGTTLTVSS VL: DIVMTQAAPSVPVTPGESVSISCRSSKSLLHSNGNTYLYWFLQRPGQSPQILIYRVSNLASGVPDRFSGSGSGTAFTLRISRVEAEDVGVYYCMQHVEYPFTFGSGTKLEIKR | 7.66 nM | 0.00246 s⁻¹ | 321000 M⁻¹ s⁻¹ | 0.0301 nM | -24% | -33% | -12% | 2% | 55% | 93% | 96% | 93% | – | – | – | – | –
2 | Chi-B02 (antibody, human IgG4 S228P, kappa, V domains shown) VH: EVQLQQSGPELVKPGASVKMSCKASGYTFTSYVMYWVKQKPGQGLEWIGYVNPYNDGTNYNEKFKGKATLTSDKSSSTAYMELSSLTSEDSAVYYCARGAMDYWGQGTSVTVSS VL: DIVMTQAAPSVPVTPGESVSISCRSSKSLLHSQGNTYLYWFLQRPGQSPQILIYRVSNLASGVPDRFSGSGSGTAFTLRISRVEAEDVGVYYCMQHVEYPFTFGSGTKLEIKR | – | – | – | 0.0275 nM | -18% | -16% | -5% | 5% | 59% | 92% | 88% | 75% | – | – | – | – | –
3 | Chi-B03 (antibody, human IgG4 S228P, kappa, V domains shown) VH: EVKLVESGGGLVQPGGSLRLSCATSGFTFSDFYMEWVRQPPGKRLEWIAASRDKANDYTTEYSPSVQGRFIVSRDSSQSILYLQMNALRTEDTAIYYCARDVGRSYALDYWGQGTSVTVSS VL: QVVLTQSPAIMSASPGEKVTMTCSASSSVTYMHWYQQKSGTSPKRWIYVTSKLASGVPTRFSGSGSGTSYSLTISSMEAEDAATYYCQQWSRKPPTFGAGTKLELKR | – | – | – | 0.0119 nM | -10% | -8% | 16% | 31% | 90% | 90% | 84% | 70% | – | – | – | – | –
4 | CP-870893 (antibody, human IgG2, kappa, V domains shown) VH: not shown VL: DIQMTQSPSSVSASVGDRVTITCRASQGIYSWLAWYQQKPGKAPNLLIYTASTLQSGVPSRFSGSGSGTDFTLTISSLQPEDFATYYCQQANIFPLTFGGGTKVEIKR | – | – | – | – | – | – | – | – | – | – | – | – | – | – | – | – | MFI value (CD95 on Ramos cells), Fc crosslinking with anti-human IgG Fcγ antibody, 1 µg/mL antibody [3]: 136000 MFI; MFI value (CD95 on Ramos cells), Fc crosslinking with anti-human IgG Fcγ antibody, 10 µg/mL antibody [3]: 135000 MFI
5 | hzA01-1.2 (antibody, human IgG4 S228P, kappa, V domains shown, Humanized A01; also called hzA01L1 + hzA01H2) VH: QVQLVESGGGVVQPGRSLRLSCAASGFSLPTSGVHWVRQAPGKGLEWVAVIWAGGDTNYADSVKGRFTISRDNSKNTVYLQMNSLRAEDTAVYYCLGHGHFDVWGQGTLVTVSS VL: DIQMTQSPSSLSASVGDRVTITCRSSQSLVHSSGNTYLQWYQQKPGKAPGLLIYKVSNRFSGVPSRFSGSGSGTDFTLTISSLQPEDFATYYCSQTTHVPWTFGQGTKVEIKR | 59.9 nM | 0.0484 s⁻¹ | 808000 M⁻¹ s⁻¹ | – | – | – | – | – | – | – | – | – | – | – | – | – | –
6 | hzA01-2.2 (antibody, human IgG4 S228P, kappa, V domains shown, Humanized A01; also called hzA01L2 + hzA01H2) VH: QVQLVESGGGVVQPGRSLRLSCAASGFSLPTSGVHWVRQAPGKGLEWVAVIWAGGDTNYADSVKGRFTISRDNSKNTVYLQMNSLRAEDTAVYYCLGHGHFDVWGQGTLVTVSS VL: EIVLTQSPGTLSLSPGERATLSCRSSQSLVHSSGNTYLQWYQQKPGQAPRLLIYKVSNRFSGIPDRFSGSGSGTDFTLTISRLEPEDFAVYYCSQTTHVPWTFGQGTKVEIKR | 113 nM | 0.101 s⁻¹ | 893000 M⁻¹ s⁻¹ | – | – | – | – | – | – | – | – | – | – | – | – | – | –
7 | hzA01-3.1 (antibody, human IgG4 S228P, kappa, V domains shown, Humanized A01; also called hzA01L3 + hzA01H1) VH: QVQLQESGPGLVKPSETLSLTCTVSGFSLPTSGVHWIRQPPGKGLEWIGVIWAGGDTNYNPSLKSRVTISKDNSKNQVFLKLSSVTAADTAVYYCLGHGHFDVWGQGTLVTVSS VL: DVVMTQSPLSLPVTLGQPASISCRSSQSLVHSSGNTYLQWYLQRPGQSPGLLIYKVSNRFSGVPDRFSGSGSGTDFTLKISRVEAEDVGVYYCSQTTHVPWTFGQGTKLEIKR | 0.366 nM | 0.000601 s⁻¹ | 1.64e+06 M⁻¹ s⁻¹ | – | – | – | – | – | – | – | – | – | ~0.6 ng/mL | 0.365 nM | 0.000686 s⁻¹ | 1.88e+06 M⁻¹ s⁻¹ | EC50 (read off the curve) [4]: ~2 ng/mL; IC50 [5]: 22.8 nM
8 | hzA01-1.1 (antibody, human IgG4 S228P, kappa, V domains shown, Humanized A01; also called hzA01L1 + hzA01H1) VH: QVQLQESGPGLVKPSETLSLTCTVSGFSLPTSGVHWIRQPPGKGLEWIGVIWAGGDTNYNPSLKSRVTISKDNSKNQVFLKLSSVTAADTAVYYCLGHGHFDVWGQGTLVTVSS VL: DIQMTQSPSSLSASVGDRVTITCRSSQSLVHSSGNTYLQWYQQKPGKAPGLLIYKVSNRFSGVPSRFSGSGSGTDFTLTISSLQPEDFATYYCSQTTHVPWTFGQGTKVEIKR | 0.808 nM | 0.00101 s⁻¹ | 1.25e+06 M⁻¹ s⁻¹ | – | – | – | – | – | – | – | – | – | ~0.3 ng/mL | 0.576 nM | 0.000923 s⁻¹ | 1.6e+06 M⁻¹ s⁻¹ | –
9 | hzA01-2.1 (antibody, human IgG4 S228P, kappa, V domains shown, Humanized A01; also called hzA01L2 + hzA01H1) VH: QVQLQESGPGLVKPSETLSLTCTVSGFSLPTSGVHWIRQPPGKGLEWIGVIWAGGDTNYNPSLKSRVTISKDNSKNQVFLKLSSVTAADTAVYYCLGHGHFDVWGQGTLVTVSS VL: EIVLTQSPGTLSLSPGERATLSCRSSQSLVHSSGNTYLQWYQQKPGQAPRLLIYKVSNRFSGIPDRFSGSGSGTDFTLTISRLEPEDFAVYYCSQTTHVPWTFGQGTKVEIKR | 1.76 nM | 0.00255 s⁻¹ | 1.45e+06 M⁻¹ s⁻¹ | – | – | – | – | – | – | – | – | – | ~0.6 ng/mL | 1.5 nM | 0.00282 s⁻¹ | 1.88e+06 M⁻¹ s⁻¹ | –
